Residue numbers refer to the chain shown, from its start.
T1: Cynomolgus monkey DLL3 antigen protein (Kactus Biosystems, Cat. No. CM103) (Cynomolgus monkey, UniProt Q9NYJ7 27-490 (human entry))
T1 construct: also called cyno DLL3
T1 chain: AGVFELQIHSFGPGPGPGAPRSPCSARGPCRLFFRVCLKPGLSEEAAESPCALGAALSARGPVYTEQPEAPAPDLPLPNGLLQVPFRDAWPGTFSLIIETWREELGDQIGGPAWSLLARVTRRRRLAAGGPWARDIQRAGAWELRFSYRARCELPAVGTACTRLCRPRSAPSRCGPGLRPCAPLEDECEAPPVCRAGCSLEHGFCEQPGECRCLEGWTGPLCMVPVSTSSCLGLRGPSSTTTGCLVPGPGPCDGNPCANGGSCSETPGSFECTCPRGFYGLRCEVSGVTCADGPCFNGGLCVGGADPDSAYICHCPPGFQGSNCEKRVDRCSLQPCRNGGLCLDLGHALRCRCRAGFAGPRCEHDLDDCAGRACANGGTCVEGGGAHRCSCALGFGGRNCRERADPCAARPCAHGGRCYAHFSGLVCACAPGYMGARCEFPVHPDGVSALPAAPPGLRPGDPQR

T2: human DLL3 antigen protein (Kactus Biosystems, Cat. No. DLL-HM103) (human, UniProt Q9NYJ7 27-492)
T2 sequence: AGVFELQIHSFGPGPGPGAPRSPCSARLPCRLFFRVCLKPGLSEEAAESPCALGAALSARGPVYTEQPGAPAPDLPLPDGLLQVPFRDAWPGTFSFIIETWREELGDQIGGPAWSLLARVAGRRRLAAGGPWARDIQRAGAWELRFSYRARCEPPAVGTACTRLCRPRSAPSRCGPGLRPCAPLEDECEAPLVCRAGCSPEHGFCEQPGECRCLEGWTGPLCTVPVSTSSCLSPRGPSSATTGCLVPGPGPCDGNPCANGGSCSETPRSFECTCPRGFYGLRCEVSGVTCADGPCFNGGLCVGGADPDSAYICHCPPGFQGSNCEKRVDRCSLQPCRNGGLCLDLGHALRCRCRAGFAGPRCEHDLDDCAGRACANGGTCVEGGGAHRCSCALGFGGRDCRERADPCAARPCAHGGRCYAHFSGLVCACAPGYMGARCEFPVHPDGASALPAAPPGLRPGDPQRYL

B1: H2-39E2D11-AS humanized antibody variant (antibody, V domains shown)
VH: QVQLVQSGAEVKKPGASVKVSCKASGYTFISYWITWVRQAPGQGLEWMGDIYPGSGSTTNYNEKFKSRVTMTRDTSTSTVYMELSSLRSEDTAVYYCARETTVGGAYAMDYWGQGTLVTVSS
VL: EIVLTQSPATLSLSPGERATLSCRASQSINNNLHWYQQKPGQAPRLLIKYVSQSISGIPARFSGSGSGTDFTLTISSLEPEDFAVYYCQQTASWPLTFGGGTKLEIK
notes: Variant of H2-39E2D11; Its constant regions are not restated
B2: H2-39E2D11-QS humanized antibody variant (antibody, V domains shown)
VH: B1 VH
VL: B1 VL with A92Q
notes: as for B1
B3: H2-39E2D11-NA humanized antibody variant (antibody, V domains shown)
VH: B1 VH
VL: B1 VL with A92N, S93A
notes: as for B1
B4: DLL3-12 VHH (IPTG-induced supernatant, with his and c-Myc labels) (VHH)
VHH: QVQLVESGGGLVQPGESLRLSCAGSGFAFSSYDMHWVRQAPGKDFEWVSSISRDGRGPRYADFVKGRFTISKDNGRNMLYLQLNSLEIEDTAMYYCSKGYPIMGGTTQGTQVTVSS
notes: not shown: his and c-Myc labels
B5: DLL3-26 VHH (IPTG-induced supernatant, with his and c-Myc labels) (VHH)
VHH: QVQLVESGGGSVQAGGSLRLSCAASGDIYSSSYVGWFRQAPGKEREGVAIIYTSGDSTYYANSVKGRFTISQDKAKKTLYLQMNSLKPEDTAMYYCAARFAIDNSNYWGQGTQVTVSS
notes: as for B4
B6: DLL3-122 VHH (IPTG-induced supernatant, with his and c-Myc labels) (VHH)
VHH: QVQLVESGGGSVQAGGSLRLSCTASGDTYRSYCMGWFRKAPGKEREGVADIVSDGSTSYADSVKGRFTISKDNAKNTLYLQMNSLKPEDTAMYYCAVDRGGSGGYCYTGRYDYWGQGTQVTVSS
notes: as for B4
B7: DLL3-3 VHH (IPTG-induced supernatant, with his and c-Myc labels) (VHH)
VHH: DVQLVESGGGSVQAGGSLKLSCKSPTYTISSGYMGWFRQAPGKEREGVAAIYIGGSTTLYADSVKGRFTISADNAEKTVYLQMNTLKPEDSAMYYCAAQLRPNSAYHPLDGRKYNYWGQGTQVTVSS
notes: as for B4
B8: DLL3-276 VHH (IPTG-induced supernatant, with his and c-Myc labels) (VHH)
VHH: QVQLVESGGGSVQAGGSLNLSCATSGSTASTTYMGWFRQAPGKGREGVAIIYTARDNPWYANSVKGRFIISQDNAKKTLYLQMNTLKPEDTATYYCAATLANPTRTAWGQGTLVTVSS
notes: as for B4

Biological target: T1, Cynomolgus monkey DLL3 antigen protein …
Test: affinity assay with Cynomolgus monkey DLL3 antigen protein (kinetics; method not restated, Biacore as in Example 18 implied)

Kd | koff | kon | Binder
1630 pM | 0.000427 s⁻¹ | 262000 M⁻¹ s⁻¹ | B1
434 pM | 8.59e-05 s⁻¹ | 198000 M⁻¹ s⁻¹ | B2
346 pM | 8.09e-05 s⁻¹ | 233000 M⁻¹ s⁻¹ | B3

Each binder was assayed against T2, human DLL3 antigen protein (Kactus …) (assay: affinity assay with human DLL3 antigen protein (kinetics; method not restated, Biacore as in Example 18 implied)).

Kd | koff | kon | Binder
1760 pM | 0.000362 s⁻¹ | 206000 M⁻¹ s⁻¹ | B1
229 pM | 3.91e-05 s⁻¹ | 171000 M⁻¹ s⁻¹ | B2
484 pM | 0.00012 s⁻¹ | 247000 M⁻¹ s⁻¹ | B3

What follows are binders tested against T2, human DLL3 antigen protein (Kactus …) (assay: ELISA, antigen coated at 2 ug/ml, induced supernatant, anti-Myc HRP).
Method: (§1) In order to obtain a positive antibody that can cross-bind to human DLL3 and Cynomolgus monkey DLL3, the above library was amplified and added to the M13K07 helper phage to assemble phage. 1×10¹² pfu camel immune library phage was added and incubated with biotinylated human DLL3 proteins (8 μg/mL) bound to magnetic beads for 1 h at room temperature. After washing with 0.05% PBST to remove unbound phage, the phage specifically bound to DLL3 was eluted with 100 mM triethylamine. After gradient dilution, log-phase growth of E. coli SS320 was infected and spread on an ampicillin plate overnight at 37° C. A single clone was picked for IPTG-induced expression and the supernatant was used for ELISA detection. The ELISA plate was coated with 2 μg/ml human DLL3 or Cynomolgus monkey DLL3 antigen respectively overnight at 4° C. The plate was washed with 0.05% PBST 3 times, then blocked with 5% skimmed milk for 1 h at room temperature, and washed with 0.05% PBST 3 times. Then 30 μL of induced supernatant was added to each well, and a culture medium was added to a negative control well. The plate was incubated for 1 h at room temperature. Finally, anti-Myc HRP detection was performed (VHH expressed by IPTG induction has his and c-Myc labels). The amino acid sequences of the five heavy chain antibody variable regions of the present disclosure were obtained by sequencing clones from the ELISA assay that bound human and Cynomolgus monkey DLL3 with OD450 values greater than 1.0 and ELISA OD450 ratios greater than 3 to the medium as negative control, with the results shown in Table 1: […]

ELISA OD450 ratio to the medium negative control | OD450 | Binder
> 3 fold | > 1 OD450 | B4
> 3 fold | > 1 OD450 | B5
> 3 fold | > 1 OD450 | B6
> 3 fold | > 1 OD450 | B7
> 3 fold | > 1 OD450 | B8

Biological target: T1, Cynomolgus monkey DLL3 antigen protein …
Test: as above
Method: as §1

ELISA OD450 ratio to the medium negative control | OD450 | Binder
> 3 fold | > 1 OD450 | B4
> 3 fold | > 1 OD450 | B5
> 3 fold | > 1 OD450 | B6
> 3 fold | > 1 OD450 | B7
> 3 fold | > 1 OD450 | B8

Source: patent publication US20240239878A1 (SHANGHAI QILU PHARMACEUTICAL RESEARCH AND DEVELOPMENT CENTRE, published 2024)
